The results in this text go back to the supplement of paper PMC5998384.

The test system of data set [1] is HeLa Kyoto. Description: solubility in G1/S (NP-40 vs SDS abundance) (log2 ratio); higher = more soluble. The note with it: cell cycle stage: G1/S.
In data set [2] the test system is HeLa Kyoto. Put plainly: melting temperature (median over replicates), in situ; higher = more thermally stable.
Data set [3] has as its system HeLa Kyoto. Description: solubility change mitosis vs G1/S (difference of NP-40 vs SDS log2 ratios) (log2 ratio difference); higher = more soluble in mitosis.
In data set [4] the test system is HeLa Kyoto. Description: thermal stability score vs G1/S (z-score of summed log2 fold changes over temperatures); higher = more thermally stable than in G1/S.
The mark [5] stands for this setting: cell cycle stage: early G1 (4.5 h after nocodazole release).
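Throughout, for melting temperature (median over replicates), in situ: HeLa Kyoto cells synchronized by double thymidine or nocodazole block, proteins quantified by TMT10plex mass spectrometry, three independent biological replicates.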
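Throughout, for solubility change mitosis vs G1/S (difference of NP-40 vs SDS log2 ratios): synchronized HeLa Kyoto cells (double thymidine block for G1/S, nocodazole release for mitosis), protein amounts in NP-40 versus SDS lysates quantified by mass spectrometry, three biological replicates.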
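Throughout, for solubility in G1/S (NP-40 vs SDS abundance): HeLa Kyoto cells arrested at G1/S by double thymidine block, proteins quantified by TMT10plex mass spectrometry in mild NP-40 versus SDS extracts, three biological replicates.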
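Throughout, for thermal stability score vs G1/S (z-score of summed log2 fold changes over temperatures): synchronized HeLa Kyoto cells, proteins quantified by TMT10plex mass spectrometry, three biological replicates, mitosis taken 0.5 h after nocodazole release, G1/S directly after double thymidine block.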

For the sequence “MEFDLGAALEPTSQKPGVGAGHGGDPKLSPHKVQGRSEAGAGPGPKQGHHSSSDSSSSSSDSDTDVKSHAAGSKQHESIPGKAKKPKVKKKEKGKKEKGKKKEAPH [IMUP]”, in the data set with HeLa Kyoto [1], the “solubility in G1/S (log2)” value amounted to 1.09. This sequence showed a melting temperature in the data set with HeLa Kyoto [2] (cell cycle stage: G1/S) of 59.3 °C. Besides, the “solubility change mitosis (log2)” value with HeLa Kyoto [3] is 0.311. The results for the thermal stability score in the data set on HeLa Kyoto [4] (setting [5]) and in the data set with HeLa Kyoto [4] (cell cycle stage: mitosis) were 1.02 and -1.94, respectively.
Consider “MEFSSPSREECPKPLSRVSIMAGSLTGLLLLQAVSWASGARPCIPKSFGYSSVVCVCNATYCDSFDPPTFPALGTFSRYESTRSGRRMELSMGPIQANHTGTGLLLTLQPEQKFQKVKGFGGAMTDAAALNILALSPPAQNLLLKSYFSEEGIGYNIIRVPMASCDFSIRTYTYADTPDDFQLHNFSLPEEDTKLKIPLIHRALQLAQRPVSLLASPWTSPTWLKTNGAVNGKGSLKGQPGDIYHQTWARYFVKFLDAYAEHKLQFWAVTAENEPSAGLLSGYPFQCLGFTPEHQRDFIARDLGPTLANSTHHNVRLLMLDDQRLLLPHWAKVVLTDPEAAKYVHGIAVHWYLDFLAPAKATLGETHRLFPNTMLFASEACVGSKFWEQSVRLGSWDRGMQYSHSIITNLLYHVVGWTDWNLALNPEGGPNWVRNFVDSPIIVDITKDTFYKQPMFYHLGHFSKFIPEGSQRVGLVASQKNDLDAVALMHPDGSAVVVVLNRSSKDVPLTIKDPAVGFLETISPGYSIHTYLWRRQ [GBA]”, for which, in the data set on HeLa Kyoto [1], the “solubility in G1/S (log2)” value was found to be 0.227. For the same sequence, the melting temperature is 55.4 °C with HeLa Kyoto [2] (cell cycle stage: G1/S) and 55.7 °C with HeLa Kyoto [2] (cell cycle stage: mitosis). The “solubility change mitosis (log2)” value with HeLa Kyoto [3] is -0.136. Besides, the results for the thermal stability score in the data set with HeLa Kyoto [4] (setting [5]) and in the data set with HeLa Kyoto [4] (cell cycle stage: mitosis) were -0.371 and 0.189, respectively.
Turning to “MEGAKPTLQLVYQAVQALYHDPDPSGKERASFWLGELQRSVHAWEISDQLLQIRQDVESCYFAAQTMKMKIQTSFYELPTDSHASLRDSLLTHIQNLKDLSPVIVTQLALAIADLALQMPSWKGCVQTLVEKYSNDVTSLPFLLEILTVLPEEVHSRSLRIGANRRTEIIEDLAFYSSTVVSLLMTCVEKAGTDEKMLMKVFRCLGSWFNLGVLDSNFMANNKLLALLFEVLQQDKTSSNLHEAASDCVCSALYAIENVETNLPLAMQLFQGVLTLETAYHMAVAREDLDKVLNYCRIFTELCETFLEKIVCTPGQGLGDLRTLELLLICAGHPQYEVVEISFNFWYRLGEHLYKTNDEVIHGIFKAYIQRLLHALARHCQLEPDHEGVPEETDDFGEFRMRVSDLVKDLIFLIGSMECFAQLYSTLKEGNPPWEVTEAVLFIMAAIAKSVDPENNPTLVEVLEGVVRLPETVHTAVRYTSIELVGEMSEVVDRNPQFLDPVLGYLMKGLCEKPLASAAAKAIHNICSVCRDHMAQHFNGLLEIARSLDSFLLSPEAAVGLLKGTALVLARLPLDKITECLSELCSVQVMALKKLLSQEPSNGISSDPTVFLDRLAVIFRHTNPIVENGQTHPCQKVIQEIWPVLSETLNKHRADNRIVERCCRCLRFAVRCVGKGSAALLQPLVTQMVNVYHVHQHSCFLYLGSILVDEYGMEEGCRQGLLDMLQALCIPTFQLLEQQNGLQNHPDTVDDLFRLATRFIQRSPVTLLRSQVVIPILQWAIASTTLDHRDANCSVMRFLRDLIHTGVANDHEEDFELRKELIGQVMNQLGQQLVSQLLHTCCFCLPPYTLPDVAEVLWEIMQVDRPTFCRWLENSLKGLPKETTVGAVTVTHKQLTDFHKQVTSAEECKQVCWALRDFTRLFR [TNPO3]”, the “solubility in G1/S (log2)” value in the data set with HeLa Kyoto [1] is -0.253. Further, the results for the melting temperature in the data set with HeLa Kyoto [2] (cell cycle stage: G1/S) and in the data set on HeLa Kyoto [2] (cell cycle stage: mitosis) were 51.6 °C and 51.7 °C, respectively. For the same sequence, the “solubility change mitosis (log2)” value in the data set on HeLa Kyoto [3] was -0.0891. The thermal stability score in the data set with HeLa Kyoto [4] (setting [5]) came to 0.188; with HeLa Kyoto [4] (cell cycle stage: mitosis) it was 1.24.
For “MEGESTSAVLSGFVLGALAFQHLNTDSDTEGFLLGEVKGEAKNSITDSQMDDVEVVYTIDIQKYIPCYQLFSFYNSSGEVNEQALKKILSNVKKNVVGWYKFRRHSDQIMTFRERLLHKNLQEHFSNQDLVFLLLTPSIITESCSTHRLEHSLYKPQKGLFHRVPLVVANLGMSEQLGYKTVSGSCMSTGFSRAVQTHSSKFFEEDGSLKEVHKINEMYASLQEELKSICKKVEDSEQAVDKLVKDVNRLKREIEKRRGAQIQAAREKNIQKDPQENIFLCQALRTFFPNSEFLHSCVMSLKNRHVSKSSCNYNHHLDVVDNLTLMVEHTDIPEASPASTPQIIKHKALDLDDRWQFKRSRLLDTQDKRSKADTGSSNQDKASKMSSPETDEEIEKMKGFGEYSRSPTF [FAM175A]”, the “solubility in G1/S (log2)” value with HeLa Kyoto [1] stood at 0.0226. In the data set with HeLa Kyoto [2] (cell cycle stage: mitosis), this sequence came in with a melting temperature of 57.3 °C. Also, in the data set on HeLa Kyoto [3], the “solubility change mitosis (log2)” value is -0.057. For the same sequence, the thermal stability score is -2.44 with HeLa Kyoto [4] (setting [5]) and -2.5 in the data set with HeLa Kyoto [4] (cell cycle stage: mitosis).
Consider “MEGKWLLCMLLVLGTAIVEAHDGHDDDVIDIEDDLDDVIEEVEDSKPDTTAPPSSPKVTYKAPVPTGEVYFADSFDRGTLSGWILSKAKKDDTDDEIAKYDGKWEVEEMKESKLPGDKGLVLMSRAKHHAISAKLNKPFLFDTKPLIVQYEVNFQNGIECGGAYVKLLSKTPELNLDQFHDKTPYTIMFGPDKCGEDYKLHFIFRHKNPKTGIYEEKHAKRPDADLKTYFTDKKTHLYTLILNPDNSFEILVDQSVVNSGNLLNDMTPPVNPSREIEDPEDRKPEDWDERPKIPDPEAVKPDDWDEDAPAKIPDEEATKPEGWLDDEPEYVPDPDAEKPEDWDEDMDGEWEAPQIANPRCESAPGCGVWQRPVIDNPNYKGKWKPPMIDNPSYQGIWKPRKIPNPDFFEDLEPFRMTPFSAIGLELWSMTSDIFFDNFIICADRRIVDDWANDGWGLKKAADGAAEPGVVGQMIEAAEERPWLWVVYILTVALPVFLVILFCCSGKKQTSGMEYKKTDAPQPDVKEEEEEKEEEKDKGDEEEEGEEKLEEKQKSDAEEDGGTVSQEEEDRKPKAEEDEILNRSPRNRKPRRE [CANX]”, for which the “solubility in G1/S (log2)” value in the data set on HeLa Kyoto [1] was found to be 0.339. In addition, the figures for the melting temperature in the data set with HeLa Kyoto [2] (cell cycle stage: G1/S) and with HeLa Kyoto [2] (cell cycle stage: mitosis) were 53.7 °C and 53.9 °C, respectively. Besides, the “solubility change mitosis (log2)” value with HeLa Kyoto [3] is -0.0953. The thermal stability score amounted to 2.71 in the data set on HeLa Kyoto [4] (setting [5]) and 3.35 with HeLa Kyoto [4] (cell cycle stage: mitosis).
For “MEGLAGYVYKAASEGKVLTLAALLLNRSESDIRYLLGYVSQQGGQRSTPLIIAARNGHAKVVRLLLEHYRVQTQQTGTVRFDGYVIDGATALWCAAGAGHFEVVKLLVSHGANVNHTTVTNSTPLRAACFDGRLDIVKYLVENNANISIANKYDNTCLMIAAYKGHTDVVRYLLEQRADPNAKAHCGATALHFAAEAGHIDIVKELIKWRAAIVVNGHGMTPLKVAAESCKADVVELLLSHADCDRRSRIEALELLGASFANDRENYDIIKTYHYLYLAMLERFQDGDNILEKEVLPPIHAYGNRTECRNPQELESIRQDRDALHMEGLIVRERILGADNIDVSHPIIYRGAVYADNMEFEQCIKLWLHALHLRQKGNRNTHKDLLRFAQVFSQMIHLNETVKAPDIECVLRCSVLEIEQSMNRVKNISDADVHNAMDNYECNLYTFLYLVCISTKTQCSEEDQCKINKQIYNLIHLDPRTREGFTLLHLAVNSNTPVDDFHTNDVCSFPNALVTKLLLDCGAEVNAVDNEGNSALHIIVQYNRPISDFLTLHSIIISLVEAGAHTDMTNKQNKTPLDKSTTGVSEILLKTQMKMSLKCLAARAVRANDINYQDQIPRTLEEFVGFH [FEM1B]”, the “solubility in G1/S (log2)” value with HeLa Kyoto [1] was -0.0515. Besides, the figures for the melting temperature with HeLa Kyoto [2] (cell cycle stage: G1/S) and in the data set on HeLa Kyoto [2] (cell cycle stage: mitosis) were 53.5 °C and 52.2 °C, respectively. The “solubility change mitosis (log2)” value in the data set on HeLa Kyoto [3] is -0.0104. Besides, the thermal stability score was 0.363 in the data set on HeLa Kyoto [4] (setting [5]) and -1.04 in the data set on HeLa Kyoto [4] (cell cycle stage: mitosis).
